Data as given in US20220211812A1 (Bristol-Myers Squibb, published 2022).

T1: human RXFP1 receptor (human, UniProt Q9HBX9 1-757)
T1 sequence (looked up): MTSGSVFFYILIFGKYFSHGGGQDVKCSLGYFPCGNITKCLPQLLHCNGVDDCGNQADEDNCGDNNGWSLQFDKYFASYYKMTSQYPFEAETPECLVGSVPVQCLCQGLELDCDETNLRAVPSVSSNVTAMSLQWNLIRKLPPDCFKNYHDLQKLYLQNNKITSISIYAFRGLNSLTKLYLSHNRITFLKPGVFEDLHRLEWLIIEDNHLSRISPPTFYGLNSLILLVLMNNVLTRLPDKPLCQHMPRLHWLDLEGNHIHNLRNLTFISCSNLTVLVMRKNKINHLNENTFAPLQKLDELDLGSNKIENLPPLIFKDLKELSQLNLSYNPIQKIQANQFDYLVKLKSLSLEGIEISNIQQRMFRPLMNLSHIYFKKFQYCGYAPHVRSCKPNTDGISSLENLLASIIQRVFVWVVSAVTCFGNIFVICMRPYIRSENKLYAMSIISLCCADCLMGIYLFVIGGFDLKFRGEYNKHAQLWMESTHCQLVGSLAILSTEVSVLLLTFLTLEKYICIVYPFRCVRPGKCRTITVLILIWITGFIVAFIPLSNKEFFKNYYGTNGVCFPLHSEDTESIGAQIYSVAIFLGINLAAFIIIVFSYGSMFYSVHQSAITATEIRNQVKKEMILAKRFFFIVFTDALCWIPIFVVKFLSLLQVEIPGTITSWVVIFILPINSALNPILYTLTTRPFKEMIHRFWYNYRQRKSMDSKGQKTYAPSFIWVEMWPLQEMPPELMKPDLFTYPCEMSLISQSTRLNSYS

B1: AQ1-KGP-Glu^γ-C14-COOH (ligand)
chain 1: XLYSALANKCCHVGCTKRSLARFC
chain 2: ASWMEEVIKLCGRELVRAQIAICGMSTWS
peptide: KGPE
modifications: not fully specified; Glu^γ bonded by amide to fatty acid -C14-COOH; oxime-linked to pAcF of the A chain; pAcF (para-acetyl-L-phenylalanine) at position 1, oxime-linked to PK enhancer KGP-Glu^γ-C14-COOH
B2: AQ1-KK-Glu^γ-C13-COOH (ligand)
chain 1: XLYSALANKCCHVGCTKRSLARFC
chain 2: ASWMEEVIKLCGRELVRAQIAICGMSTWS
peptide: KKE
modifications: not fully specified; Glu^γ bonded by amide to fatty acid -C13-COOH; oxime-linked to pAcF of the A chain; pAcF (para-acetyl-L-phenylalanine) at position 1, oxime-linked to PK enhancer …
B3: AQ1-20kDa PEG (ligand)
chain 1: XLYSALANKCCHVGCTKRSLARFC
chain 2: ASWMEEVIKLCGRELVRAQIAICGMSTWS
modifications: pAcF (para-acetyl-L-phenylalanine) at position 1, oxime-linked to 20 kDa PEG
B4: AQ1-GGGGP-Glu^γ-C14-COOH (ligand)
chain 1: XLYSALANKCCHVGCTKRSLARFC
chain 2: ASWMEEVIKLCGRELVRAQIAICGMSTWS
peptide: GGGGPE
modifications: not fully specified; Glu^γ bonded by amide to fatty acid -C14-COOH; oxime-linked to pAcF of the A chain; pAcF (para-acetyl-L-phenylalanine) at position 1, oxime-linked to PK enhancer GGGGP-Glu^γ-C14-COOH
B5: AQ1-KGPKGP-Glu^γ-C14-COOH (ligand)
chain 1: XLYSALANKCCHVGCTKRSLARFC
chain 2: ASWMEEVIKLCGRELVRAQIAICGMSTWS
peptide: KGPKGPE
modifications: not fully specified; Glu^γ bonded by amide to fatty acid -C14-COOH; oxime-linked to pAcF of the A chain; pAcF (para-acetyl-L-phenylalanine) at position 1, oxime-linked to PK enhancer KGPKGP-Glu^γ-C14-COOH
B6: AQ1-PEG36-Glu-C13-COOH (ligand)
chain 1: XLYSALANKCCHVGCTKRSLARFC
chain 2: ASWMEEVIKLCGRELVRAQIAICGMSTWS
modifications: not fully specified; pAcF (para-acetyl-L-phenylalanine) at position 1, oxime-linked to PK enhancer PEG36-Glu-C13-COOH
B7: AQ1-EAQKAQAEAQKAQAEAQKAQA-Glu^γ-C15-COOH (ligand)
chain 1: XLYSALANKCCHVGCTKRSLARFC
chain 2: ASWMEEVIKLCGRELVRAQIAICGMSTWS
peptide: EAQKAQAEAQKAQAEAQKAQAE
modifications: not fully specified; Glu^γ bonded by amide to fatty acid -C15-COOH; oxime-linked to pAcF of the A chain; pAcF (para-acetyl-L-phenylalanine) at position 1, oxime-linked to PK enhancer EAQKAQAEAQKAQAEAQKAQA-Glu^γ-C15-COOH
B8: AQ1-KK-Glu^γ-C15-COOH (ligand)
chain 1: XLYSALANKCCHVGCTKRSLARFC
chain 2: ASWMEEVIKLCGRELVRAQIAICGMSTWS
peptide: KKE
modifications: not fully specified; Glu^γ bonded by amide to fatty acid -C15-COOH; oxime-linked to pAcF of the A chain; pAcF (para-acetyl-L-phenylalanine) at position 1, oxime-linked to PK enhancer …
B9: AQ1-Glu-C13-CH3 (ligand)
chain 1: XLYSALANKCCHVGCTKRSLARFC
chain 2: ASWMEEVIKLCGRELVRAQIAICGMSTWS
modifications: not fully specified; pAcF (para-acetyl-L-phenylalanine) at position 1, oxime-linked to PK enhancer Glu-C13-CH3
B10: AQ1-Spermine-Glu^γ-C14-COOH (ligand)
chain 1: XLYSALANKCCHVGCTKRSLARFC
chain 2: ASWMEEVIKLCGRELVRAQIAICGMSTWS
modifications: not fully specified; pAcF (para-acetyl-L-phenylalanine) at position 1, oxime-linked to PK enhancer Spermine-Glu^γ-C14-COOH (compound 27 of Example 6)
B11: AQ1-EGGS-Glu^γ-C14-COOH (ligand)
chain 1: XLYSALANKCCHVGCTKRSLARFC
chain 2: ASWMEEVIKLCGRELVRAQIAICGMSTWS
peptide: EGGSE
modifications: not fully specified; Glu^γ bonded by amide to fatty acid -C14-COOH; oxime-linked to pAcF of the A chain; pAcF (para-acetyl-L-phenylalanine) at position 1, oxime-linked to PK enhancer EGGS-Glu^γ-C14-COOH
B12: AQ1-KGGEEKKKEKEKEPKGGEEKKKEKEK-Glu^γ-C15-COOH (ligand)
chain 1: XLYSALANKCCHVGCTKRSLARFC
chain 2: ASWMEEVIKLCGRELVRAQIAICGMSTWS
peptide: KGGEEKKKEKEKEPKGGEEKKKEKEKE
modifications: not fully specified; Glu^γ bonded by amide to fatty acid -C15-COOH; oxime-linked to pAcF of the A chain; pAcF (para-acetyl-L-phenylalanine) at position 1, oxime-linked to PK enhancer KGGEEKKKEKEKEPKGGEEKKKEKEK-Glu^γ-C15-COOH
B13: AQ1-KGPGSE-Glu^γ-C14-COOH (ligand)
chain 1: XLYSALANKCCHVGCTKRSLARFC
chain 2: ASWMEEVIKLCGRELVRAQIAICGMSTWS
peptide: KGPGSEE
modifications: not fully specified; Glu^γ bonded by amide to fatty acid -C14-COOH; oxime-linked to pAcF of the A chain; pAcF (para-acetyl-L-phenylalanine) at position 1, oxime-linked to PK enhancer KGPGSE-Glu^γ-C14-COOH
B14: AQ1-EGGGP-Glu^γ-C14-COOH (ligand)
chain 1: XLYSALANKCCHVGCTKRSLARFC
chain 2: ASWMEEVIKLCGRELVRAQIAICGMSTWS
peptide: EGGGPE
modifications: not fully specified; Glu^γ bonded by amide to fatty acid -C14-COOH; oxime-linked to pAcF of the A chain; pAcF (para-acetyl-L-phenylalanine) at position 1, oxime-linked to PK enhancer EGGGP-Glu^γ-C14-COOH
B15: AQ1-KKGGS-Glu^γ -C15-COOH (ligand)
chain 1: XLYSALANKCCHVGCTKRSLARFC
chain 2: ASWMEEVIKLCGRELVRAQIAICGMSTWS
peptide: KKGGSE
modifications: not fully specified; Glu^γ bonded by amide to fatty acid -C15-COOH; oxime-linked to pAcF of the A chain; pAcF (para-acetyl-L-phenylalanine) at position 1, oxime-linked to PK enhancer KKGGS-Glu^γ-C15-COOH
B16: AQ1-EEEEEE-Glu^γ-C14-CH3 (ligand)
chain 1: XLYSALANKCCHVGCTKRSLARFC
chain 2: ASWMEEVIKLCGRELVRAQIAICGMSTWS
peptide: EEEEEEE
modifications: not fully specified; Glu^γ bonded by amide to fatty acid -C14-CH3; oxime-linked to pAcF of the A chain; pAcF (para-acetyl-L-phenylalanine) at position 1, oxime-linked to PK enhancer EEEEEE-Glu^γ-C14-CH3
B17: AQ1-Glu-C13-COOH (ligand)
chain 1: XLYSALANKCCHVGCTKRSLARFC
chain 2: ASWMEEVIKLCGRELVRAQIAICGMSTWS
modifications: not fully specified; pAcF (para-acetyl-L-phenylalanine) at position 1, oxime-linked to PK enhancer Glu-C13-COOH
B18: AQ1-PEG36-Glu-C13-CH3 (ligand)
chain 1: XLYSALANKCCHVGCTKRSLARFC
chain 2: ASWMEEVIKLCGRELVRAQIAICGMSTWS
modifications: not fully specified; pAcF (para-acetyl-L-phenylalanine) at position 1, oxime-linked to PK enhancer PEG36-Glu-C13-CH3
B19: AQ1-KK-Glu^γ-C14-COOH (ligand)
chain 1: XLYSALANKCCHVGCTKRSLARFC
chain 2: ASWMEEVIKLCGRELVRAQIAICGMSTWS
peptide: KKE
modifications: not fully specified; Glu^γ bonded by amide to fatty acid -C14-COOH; oxime-linked to pAcF of the A chain; pAcF (para-acetyl-L-phenylalanine) at position 1, oxime-linked to PK enhancer …
B20: AQ1-KK-Glu^γ-C14-CH3 (ligand)
chain 1: XLYSALANKCCHVGCTKRSLARFC
chain 2: ASWMEEVIKLCGRELVRAQIAICGMSTWS
peptide: KKE
modifications: not fully specified; Glu^γ bonded by amide to fatty acid -C14-CH3; oxime-linked to pAcF of the A chain; pAcF (para-acetyl-L-phenylalanine) at position 1, oxime-linked to PK enhancer KK-Glu^γ-C14-CH3
B21: AQ1-SGGGS-Glu^γ-C14-COOH (ligand)
chain 1: XLYSALANKCCHVGCTKRSLARFC
chain 2: ASWMEEVIKLCGRELVRAQIAICGMSTWS
peptide: SGGGSE
modifications: not fully specified; Glu^γ bonded by amide to fatty acid -C14-COOH; oxime-linked to pAcF of the A chain; pAcF (para-acetyl-L-phenylalanine) at position 1, oxime-linked to PK enhancer SGGGS-Glu^γ-C14-COOH
B22: AQ1-GGGGS-Glu^γ (SEQ ID NO: 139)-C14-COOH (ligand)
chain 1: XLYSALANKCCHVGCTKRSLARFC
chain 2: ASWMEEVIKLCGRELVRAQIAICGMSTWS
peptide: GGGGSE
modifications: not fully specified; Glu^γ bonded by amide to fatty acid -C14-COOH (-(C=O)-(CH2)13-COOH); oxime-linked to pAcF of the A chain; modified para-acetyl-L-phenylalanine at the N-terminus (position 1), oxime-linked to PK enhancer GGGGS-Glu^γ-C14-COOH (Formula III)
B23: AQ1-GSPGSP-Glu^γ-C14-COOH (ligand)
chain 1: XLYSALANKCCHVGCTKRSLARFC
chain 2: ASWMEEVIKLCGRELVRAQIAICGMSTWS
peptide: GSPGSPE
modifications: not fully specified; Glu^γ bonded by amide to fatty acid -C14-COOH; oxime-linked to pAcF of the A chain; pAcF (para-acetyl-L-phenylalanine) at position 1, oxime-linked to PK enhancer GSPGSP-Glu^γ-C14-COOH
B24: AQ1-KGGGS-Glu^γ-C14-COOH (ligand)
chain 1: XLYSALANKCCHVGCTKRSLARFC
chain 2: ASWMEEVIKLCGRELVRAQIAICGMSTWS
peptide: KGGGSE
modifications: not fully specified; Glu^γ bonded by amide to fatty acid -C14-COOH; oxime-linked to pAcF of the A chain; pAcF (para-acetyl-L-phenylalanine) at position 1, oxime-linked to PK enhancer KGGGS-Glu^γ-C14-COOH
B25: AQ1-KGGGSE-Glu^γ-C14-COOH (ligand)
chain 1: XLYSALANKCCHVGCTKRSLARFC
chain 2: ASWMEEVIKLCGRELVRAQIAICGMSTWS
peptide: KGGGSEE
modifications: not fully specified; Glu^γ bonded by amide to fatty acid -C14-COOH; oxime-linked to pAcF of the A chain; pAcF (para-acetyl-L-phenylalanine) at position 1, oxime-linked to PK enhancer KGGGSE-Glu^γ-C14-COOH

Target: T1, human RXFP1 receptor
Test: cell-based or functional assay

Binder	hRXFP1/CHO-K1 cAMP EC50 (nM, avg)
B1	0.27 nM
B2	0.1 nM
B3	3.22 nM
B4	0.39 nM
B5	0.23 nM
B6	0.25 nM
B7	4.96 nM
B8	0.4 nM
B9	0.95 nM
B10	0.39 nM
B11	0.33 nM
B12	1.81 nM
B13	0.6 nM
B14	0.44 nM
B15	1.36 nM
B16	0.38 nM
B17	0.18 nM
B18	0.15 nM
B19	0.34 nM
B20	0.35 nM
B21	0.32 nM
B22	0.28 nM
B23	0.29 nM
B24	0.34 nM
B25	0.37 nM
